One substance from publication PMC4210143 can be followed below.

For the assay, the target named is soluble recombinant NadA_(Δ351-405) (rNadA), Neisseria meningitidis adhesin A lacking the membrane anchor region (Neisseria meningitidis) (UniProt Q8KH85). Briefly: SEC-MALS; rNadA 1,7 mg/ml in 10 mM NaH2PO4 150 mM NaCl pH 7.2, heated at 37°C for 30 min, 1, 2 and 4 hrs; TSK Super SW3000, eluted in 0.1 M NaH2PO4, 0,1 M NaHSO4 pH 7.0; MALLS detector Dawn TREOS.

On to “soluble recombinant NadA_(Δ351-405) (rNadA), Neisseria meningitidis adhesin A lacking the membrane anchor region (from UniProt Q8KH85 1-350) (domain or fragment)”, for which the percent of the preparation present as the native trimer stood at 95% and the stoichiometry N worked out at 3.
